According to the nanobody polyreactivity screen of Harvey et al. (2022):

Assay: yeast display, Sf9 membrane polyspecificity reagent, FACS + sequencing; frameworks hold sequencing errors
Outline: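 Sorting gates, low and high (top ~1%), were placed on anti-HA fluorescence to track expression and on streptavidin fluorescence to track reagent binding. A clone's polyreactivity label is taken from the gate it came out of. The reagent was 10% biotinylated, detergent-solubilized Sf9 membrane, applied for 1 hour at 4 °C to galactose-induced yeast display cells.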

Row | Sequence | polyreactivity (PSR sort gate)
1 | QEQLQESGVGQVQAGGSLLLSCAASGNIIRYYYMGWYRQAPGKERELVAAITYGTSTNYADSVKGRFTISRDNAKNSVYLQINSLKPEDTAVYYCAATAYWFYAKYYYWGQGTQVTVSS | high polyreactivity
2 | QVQLVESGGGLVQAGGSLRLSCAASGRTFYDYAMGWYRQAPGKERELVAASSRRAGSTYYADSVKGRFTISRDNAKNTVFLEMNSLKPEDTSVYYCAAAYYRRWWRGHHYAFDYWGQGSQVTVSS | high polyreactivity
3 | QVQLVESGGGLVQAGGSLRLSCAASGTFTSNAMGWYRQAPGKERELVAVITGGGRTNYADSVKGRFTISRDNAKNTVYLQMNSLKPEDTAVYYCAAEVYLPYYERYDYWGQGTQVTVSS | low polyreactivity
4 | QVQLVESGGGLVQAGGSLRLSCAASGRIFTYYGMGWYRQAPGKERELVAAISWSGGSTYYADSVKGRFTISRDNAKNTVYLQMNSLKPVDTAVYYCNAASRYGGDYWGQGTQVTVSS | high polyreactivity
5 | QVQLVESGGGLVQAGGSLRLSCAASGSTFAQNVMGWYRQAPGKERELVAAITSSGSTNYADSVKGRFTISRDNAKNTVYLQMNILKPEDTAVFYCAKDVLAPYSRHDYWGQGTQVTVSS | low polyreactivity
6 | QVQLVESGGGLVQAGGTLRLSCAASGIIFYYYAMGWYRQAPGKERELVAAITGTGSRTYYADSVKGRFTISRDNAKNTVYLQMNSLKPEDTADYYCNARSFATGSKVPARGYWGQGTQVTVSS | high polyreactivity
7 | QVQLLESGGGLVQAGGSLRLSCAASGYTFKAYAMGWYRQAPGKERELVAAISRGGRTNYADSVKGRFTISRDNAKYTVYLQMNSLKPEDTAVYYCNTQRQLGERFYDRSRQGDYWGHGTQVTVSS | high polyreactivity
8 | QDQLVESGGGLVQAGGSLRLSSAASGRTFCYNTKGWYRQSPGKERELLAAINYSGGSTYYADSVKGRFTISRDNAKNTVYLQMNSLKPEDTAVYYWNAKPRWYVPYDYWGQGTQVNVSS | high polyreactivity
9 | QVQLVESGGGLVQAGGSLRLSCAASASTIIRNAMGWYRQAPGKERELVAAISTSGGRTHYADSVKGRFTISRDNAKNTVYLQMNSLKPEDTAVYYCDTRGKGHYYYWGQGTQVTVSS | high polyreactivity
10 | QVQLLESGGGLVQAGGSLRLSCAASGRTFWYYVMGWYRQAPGKERELFAAITSSGGSTYYADSVKGRFTISRDNAKNSVYLQMNSLKAEDTSVYYCGAAAYTRGYYWGQGTEVTVSS | low polyreactivity
11 | QFQLVESGRGLVQAGGSLRLSCAASVRIFLWYAMGWYRQAPGKERELVAVIRGRGDSTSYADSVKGRFTISRDNAKNTVYLQMNSLKPEDTAVYYCADVGRYDYNYWGQGTQVTVSS | low polyreactivity
12 | QVQLVESGGGLVQAGGSLRLSCAASGFIFHTYAMGWYRQAPGKEREFVAAISGGTSSTYYADSVKGRFTISRDNAKNTVYLQMNSLKPEDTAVYYCAARSRRGGYPRYYYWGQGTQVTVSS | high polyreactivity
13 | QVQLVESGGGLVQAVCSLRLICAASGLTFGGYSMGWYRQAPAKERELVAAISRSCGSTYYADSVKGRFTISRDNAKNTVFLQMNSLKPEDTAVYYCNAGRDTKYDYWGQGTQVTVSS | low polyreactivity
14 | QVQLVESGGGLVQAGGSLRLSCAASGITFERYVMGWYIQAPGKERELVASISRSGSTFYADSVKGRFTISRDNAKNTVYLQMNSLKPEDTAVYYCNADRFWFHWVYSRYHYDYWGQGTQVTVSS | high polyreactivity
15 | QVQLVESGGGLVQAGGSLRLSCAASGGIFDINAMGWYRQAPGKERELVAAISWGGGSTYYADSVKGRFTISRDNAKNTVYLQMNSLKPEDTAVYYCAAESVSIQPTPDEDYWGQGTQVTVSS | high polyreactivity
16 | KVQLVESGGGLVQAGGSLRLSCAPSGRIFQPNVMGWYRQPPGKVRELAAAIRSVSSTYYADSVKGRFTISRDNAKNSVYLQMNSLKPEDTAVYYCAARLFLRGYTRGNYLGQGTQVTVSS | high polyreactivity
17 | QVQLVESGGGLVQAGGSLRLSCAASGRTFRPYAMGWYRQAPGKERELVAAISYRGGITNYADSVKGRFTISRDNAKNTVYLQMNSLKPEDTAVYYCNRYAIWVSRFSDLDYWGQGTQVTVSS | low polyreactivity
18 | QVQLVESGGGLVQAGGSIRLSSAASGFTFYPYMGWYRQAPVKERELVATITWIGDDTYYADSVKGRFTISRDNAKNTVYLQMNSLKPEDTAVYYCNTDVDDTLYYSPMDYWGQGTQVTVSS | low polyreactivity
19 | QVQLVESGGGLVQAGGSLRLSCAASGSIFEYNAMGWYRQAPGKERELVAAISWSSGTTYYADSVKGRFTISRDNAKNTVYLQMNSLKPEDTAVYYCAAVRWYVPGDVGYWGQGTQVTVSS | low polyreactivity
20 | QVHLVESGGGLVQAGGRLRLSCAASGGTFYYIAMGWYRQAPGKERELVAAISWSGVSTSYADTVKGRFTISRDNEKNTVYLQMNSLKPEDTAVYYCAAGPFYYTGFEGDYWGQGTQVTVSS | high polyreactivity
21 | QVQLVESGGGLVQAGGSLRLSCAASGRIFGLYAMGWYRQAPGKERELVAAITRGGRTNYADSVKGRFTISRDNAKNTVYLQMNSLKPEDTAVYYCAADYRYTRGRRDYWGQGTQVTVSS | high polyreactivity
